Source: the RNAGym collection of RNA variant scans (doi:10.1073/pnas.2313332121)
Fewer inactive variants are shown than the library holds.

B1: TPR 5TU (parent)
chain: GGAUCUUCUCGAUCUAACAAAAAAGACAAAUCUGCCACAAAGCUUGAGAGCAUCUUCGGAUGCAGAGGCGGCAGCCUUCGGUGGCGCGAUAGCGCCAACGUUCUCAACUAUGACACGCAAAACGCGUGCUCCGUUGAAUGGAGUUUAUCAUG

Variants of: B1
Assay: polymerase ribozyme fitness, log enrichment relative to wild type (log ratio); higher = more active; in vitro selection for triplet polymerase activity
How it was run: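 Mutant libraries were PCR-built and transcribed for each subunit of a heterodimeric triplet polymerase ribozyme and selected for one round in triplicate at −7 °C, frozen, before gel excision of extended constructs and streptavidin-bead capture. Input and output libraries were Illumina-sequenced, keeping genotypes with ≥10 input reads and ≥1 read per output. Fitness is a logarithmic ratio of genotype to wild-type enrichment, in base 2, using inverse-variance-weighted replicate averages.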

For A21C G94C C116U, which “polymerase ribozyme fitness (log ratio)” value is on record?
Its value is 0.209.

For A20U U82A C93U U145G, which “polymerase ribozyme fitness (log ratio)” value is on record?
Its value is -2.69.

For A21G A39U C75U U82A C87A A98G C118U C125U, which “polymerase ribozyme fitness (log ratio)” value is on record?
Its value is no more than -4.2.

For A21C U33A G50A G62A U90C C95A, which “polymerase ribozyme fitness (log ratio)” value is on record?
Its value is no more than -4.2.

With A21C G25U C96A A97G as the variant, how does the “polymerase ribozyme fitness (log ratio)” value read?
Its value is -3.82.

With A21G A41U C85A C116U as the variant, how does the “polymerase ribozyme fitness (log ratio)” value read?
The value was -1.58.

Which “polymerase ribozyme fitness (log ratio)” value does the source give for A21G A40U U56A C132A here?
Its value is -3.09.

Which “polymerase ribozyme fitness (log ratio)” value does the source give for A21C G50A U102A here?
The value was -1.21.

For A21C G59A, which “polymerase ribozyme fitness (log ratio)” value is on record?
Its value is -0.0146.

Which “polymerase ribozyme fitness (log ratio)” value does the source give for A21C U55G C93U G126U here?
The value was -0.141.

With A21G A49C G81A G141A as the variant, how does the “polymerase ribozyme fitness (log ratio)” value read?
Its value is no more than -4.2.

With A21G C54U G140A U145G as the variant, how does the “polymerase ribozyme fitness (log ratio)” value read?
The value was no more than -4.2.

With A21G A73G C85A C103U A122U as the variant, how does the “polymerase ribozyme fitness (log ratio)” value read?
The value was -1.86.

Which “polymerase ribozyme fitness (log ratio)” value does the source give for A21C A29G U44G C63U G68U C103U A137G G143U here?
The value was no more than -4.2.

For A21C A52U G74A G94C A121U, which “polymerase ribozyme fitness (log ratio)” value is on record?
The value was no more than -4.2.

With A21C A41U C57U A119U U134A U144A as the variant, how does the “polymerase ribozyme fitness (log ratio)” value read?
Its value is -4.17.

With A21G A41U A64U C85G A98U as the variant, how does the “polymerase ribozyme fitness (log ratio)” value read?
The value was no more than -4.2.

For A21C G42U C69G C85U A98U A106G A120U, which “polymerase ribozyme fitness (log ratio)” value is on record?
The value was no more than -4.2.

Which “polymerase ribozyme fitness (log ratio)” value does the source give for A21C A24G A39G C54U U78G G94A C129G U134G G140U U145G here?
Its value is no more than -4.2.

Which “polymerase ribozyme fitness (log ratio)” value does the source give for A21C A52C G68A U101G here?
Its value is no more than -4.2.

With A21C G141C as the variant, how does the “polymerase ribozyme fitness (log ratio)” value read?
The value was 1.03.

For A21G C27G U33C G58C C96U A97U A106G G141U, which “polymerase ribozyme fitness (log ratio)” value is on record?
The value was no more than -4.2.

For A21G C36A C57U A64G G94U G126C A138G, which “polymerase ribozyme fitness (log ratio)” value is on record?
The value was no more than -4.2.

With A21C G68U as the variant, how does the “polymerase ribozyme fitness (log ratio)” value read?
The value was no more than -4.2.

With A21C A110C as the variant, how does the “polymerase ribozyme fitness (log ratio)” value read?
The value was no more than -4.2.

With A21G C27U A52C C93G A110U G152U as the variant, how does the “polymerase ribozyme fitness (log ratio)” value read?
The value was no more than -4.2.

For A21C C57A G81U C85A U139G, which “polymerase ribozyme fitness (log ratio)” value is on record?
Its value is -0.214.

With A21C A30C A41U A64U C103G A115C A119C G128A G133U as the variant, how does the “polymerase ribozyme fitness (log ratio)” value read?
Its value is no more than -4.2.

For A21C U134A, which “polymerase ribozyme fitness (log ratio)” value is on record?
Its value is -1.79.

With A21C C51U A66G C85G as the variant, how does the “polymerase ribozyme fitness (log ratio)” value read?
Its value is no more than -4.2.

With A21C G25A U127G as the variant, how does the “polymerase ribozyme fitness (log ratio)” value read?
Its value is no more than -4.2.

For A21G A52C G83U G84A U90C C95G G100A C103G A107U U139G, which “polymerase ribozyme fitness (log ratio)” value is on record?
The value was no more than -4.2.

For A21C C35A G84A G117A U127G, which “polymerase ribozyme fitness (log ratio)” value is on record?
Its value is no more than -4.2.

With A21C G50C A60C A64U A66G G83A as the variant, how does the “polymerase ribozyme fitness (log ratio)” value read?
Its value is no more than -4.2.

With A21C A22U G86U U102C C116U A122G A138U as the variant, how does the “polymerase ribozyme fitness (log ratio)” value read?
Its value is no more than -4.2.

With A21C G34U U61A C87U U134G U135A G141C as the variant, how does the “polymerase ribozyme fitness (log ratio)” value read?
Its value is no more than -4.2.

Which “polymerase ribozyme fitness (log ratio)” value does the source give for A21G A28G U61C here?
The value was no more than -4.2.

For A21C C96A G143A U146G, which “polymerase ribozyme fitness (log ratio)” value is on record?
Its value is -3.61.

Which “polymerase ribozyme fitness (log ratio)” value does the source give for A20U U82G C93U here?
Its value is -2.36.

For A21G A98U C129A U144A, which “polymerase ribozyme fitness (log ratio)” value is on record?
The value was -3.61.

For A21C C57A C85G U130G, which “polymerase ribozyme fitness (log ratio)” value is on record?
The value was -4.

With A21C A24U C54G C85U A121C as the variant, how does the “polymerase ribozyme fitness (log ratio)” value read?
The value was -0.525.

With A21G A49U G50A as the variant, how does the “polymerase ribozyme fitness (log ratio)” value read?
Its value is -0.423.

With A21C C27A A40U G46A C57U C87G G126A as the variant, how does the “polymerase ribozyme fitness (log ratio)” value read?
The value was no more than -4.2.

For A21C U33G C87U U145A A150U, which “polymerase ribozyme fitness (log ratio)” value is on record?
Its value is no more than -4.2.

With A21C G68C A142G as the variant, how does the “polymerase ribozyme fitness (log ratio)” value read?
The value was -4.13.

With A20U U61A as the variant, how does the “polymerase ribozyme fitness (log ratio)” value read?
Its value is -2.43.

Which “polymerase ribozyme fitness (log ratio)” value does the source give for A21G A60G U78C A89U G92A G124U A137G G143U here?
The value was no more than -4.2.

With A21G C36U A52U C116U A120U U144C as the variant, how does the “polymerase ribozyme fitness (log ratio)” value read?
Its value is -3.59.

For A21G A60G G68U C93G C95G U139C, which “polymerase ribozyme fitness (log ratio)” value is on record?
Its value is no more than -4.2.

With A21C U148A as the variant, how does the “polymerase ribozyme fitness (log ratio)” value read?
The value was -3.11.

Which “polymerase ribozyme fitness (log ratio)” value does the source give for A21C A26C G71C C76G C87A C108U here?
Its value is no more than -4.2.

For A21C C93A U104A G141C U144G G152A, which “polymerase ribozyme fitness (log ratio)” value is on record?
Its value is no more than -4.2.

Which “polymerase ribozyme fitness (log ratio)” value does the source give for A21C G68C C69A C93G U144G here?
The value was no more than -4.2.

With A21C C87G as the variant, how does the “polymerase ribozyme fitness (log ratio)” value read?
Its value is -3.89.

Which “polymerase ribozyme fitness (log ratio)” value does the source give for A21C C87U A147U here?
The value was 0.884.

With A21G A37U G59A A60C as the variant, how does the “polymerase ribozyme fitness (log ratio)” value read?
The value was -3.22.

For A21C A24U A40G U144A, which “polymerase ribozyme fitness (log ratio)” value is on record?
Its value is -3.76.

Which “polymerase ribozyme fitness (log ratio)” value does the source give for A21C G88A U104G A107U here?
Its value is no more than -4.2.

Which “polymerase ribozyme fitness (log ratio)” value does the source give for A20U U101A here?
Its value is -2.4.

With A21C A137G as the variant, how does the “polymerase ribozyme fitness (log ratio)” value read?
The value was -0.909.

With A21G A24G C51U U104G A113U as the variant, how does the “polymerase ribozyme fitness (log ratio)” value read?
The value was no more than -4.2.

With A21C C93G as the variant, how does the “polymerase ribozyme fitness (log ratio)” value read?
Its value is -3.

For A21C C93U, which “polymerase ribozyme fitness (log ratio)” value is on record?
Its value is -1.24.

For A21G A24U C93G, which “polymerase ribozyme fitness (log ratio)” value is on record?
The value was -4.02.

For A21G A60G C63A C93G, which “polymerase ribozyme fitness (log ratio)” value is on record?
The value was -3.23.

With A21C A40C G48A C85A G94C as the variant, how does the “polymerase ribozyme fitness (log ratio)” value read?
Its value is -2.1.

With A21G A52U C85U G94U A98U C116U as the variant, how does the “polymerase ribozyme fitness (log ratio)” value read?
The value was -1.64.

For A21C C35A A39C G100C G136U, which “polymerase ribozyme fitness (log ratio)” value is on record?
The value was no more than -4.2.

For A21G C57A, which “polymerase ribozyme fitness (log ratio)” value is on record?
The value was 1.14.

For A21C C35U U44A U53A U101G, which “polymerase ribozyme fitness (log ratio)” value is on record?
Its value is no more than -4.2.

For A21C A23G A37C C95G, which “polymerase ribozyme fitness (log ratio)” value is on record?
Its value is no more than -4.2.

Which “polymerase ribozyme fitness (log ratio)” value does the source give for A21C C116U here?
Its value is 0.668.

For A21C G84A C95A U104C, which “polymerase ribozyme fitness (log ratio)” value is on record?
Its value is -0.91.

Which “polymerase ribozyme fitness (log ratio)” value does the source give for A21C A66G here?
The value was -3.91.

With A21C A60G A73U C93G A137U as the variant, how does the “polymerase ribozyme fitness (log ratio)” value read?
The value was no more than -4.2.

For A21C C85A U127A, which “polymerase ribozyme fitness (log ratio)” value is on record?
The value was no more than -4.2.

For A21C A24G C38U G83A C99U, which “polymerase ribozyme fitness (log ratio)” value is on record?
The value was no more than -4.2.

With A21C A41U C76U G84A C95U U111G as the variant, how does the “polymerase ribozyme fitness (log ratio)” value read?
Its value is -4.18.

For A21C U53A C85A, which “polymerase ribozyme fitness (log ratio)” value is on record?
Its value is -2.67.

For A21C A73U A107C A121U C149U, which “polymerase ribozyme fitness (log ratio)” value is on record?
Its value is no more than -4.2.

With A21C A37C G84A as the variant, how does the “polymerase ribozyme fitness (log ratio)” value read?
Its value is 0.0671.

With A21C G58C U61G U146G as the variant, how does the “polymerase ribozyme fitness (log ratio)” value read?
Its value is -3.25.

Which “polymerase ribozyme fitness (log ratio)” value does the source give for A21C G25C U53A here?
Its value is -3.09.
